Experimental data from patent US8221992.

B1: recombinant PKCε (rePKCε) (Calbiochem) (protein)
chain: MVVFNGLLKIKICEAVSLKPTAWSLRHAVGPRPQTFLLDPYIALNVDDSRIGQTATKQKTNSPAWHDEFVTDVCNGRKIELAVFHDAPIGYDDFVANCTIQFEELLQNGSRHFEDWIDLEPEGRVYVIIDLSGSSGEAPKDNEERVFRERMRPRKRQGAVRRRVHQVNGHKFMATYLRQPTYCSHCRDFIWGVIGKQGYQCQVCTCVVHKRCHELIITKCAGLKKQETPDQVGSQRFSVNMPHKFGIHNYKVPTFCDHCGSLLWGLLRQGLQCKVCKMNVHRRCETNVAPNCGVDARGIAKVLADLGVTPDKITNSGQRRKKLIAGAESPQPASGSSPSEEDRSKSAPTSPCDQEIKELENNIRKALSFDNRGEEHRAASSPDGQLMSPGENGEVRQGQAKRLGLDEFNFIKVLGKGSFGKVMLAELKGKDEVYAVKVLKKDVILQDDDVDCTMTEKRILALARKHPYLTQLYCCFQTKDRLFFVMEYVNGGDLMFQIQRSRKFDEPRSRFYAAEVTSALMFLHQHGVIYRDLKLDNILLDAEGHCKLADFGMCKEGILNGVTTTTFCGTPDYIAPEILQELEYGPSVDWWALGVLMYEMMAGQPPFEADNEDDLFESILHDDVLYPVWLSKEAVSILKAFMTKNPHKRLGCVASQNGEDAIKQHPFFKEIDWVLLEQKKIKPPFKPRIKTKRDVNNFDQDFTREEPVLTLVDEAIVKQINQEEFKGFSYFGEDLMP
B2: PKCε in THP1 cell lysates (protein)
chain: B1 chain
B3: recombinant PKCζ (rePKCζ) (protein)
chain: MPSRTGPKMEGSGGRVRLKAHYGGDIFITSVDAATTFEELCEEVRDMCRLHQQHPLTLKWVDSEGDPCTVSSQMELEEAFRLARQCRDEGLIIHVFPSTPEQPGLPCPGEDKSIYRRGARRWRKLYRANGHLFQAKRFNRRAYCGQCSERIWGLARQGYRCINCKLLVHKRCHGLVPLTCRKHMDSVMPSQEPPVDDKNEDADLPSEETDGIAYISSSRKHDSIKDDSEDLKPVIDGMDGIKISQGLGLQDFDLIRVIGRGSYAKVLLVRLKKNDQIYAMKVVKKELVHDDEDIDWVQTEKHVFEQASSNPFLVGLHSCFQTTSRLFLVIEYVNGGDLMFHMQRQRKLPEEHARFYAAEICIALNFLHERGIIYRDLKLDNVLLDADGHIKLTDYGMCKEGLGPGDTTSTFCGTPNYIAPEILRGEEYGFSVDWWALGVLMFEMMAGRSPFDIITDNPDMNTEDYLFQVILEKPIRIPRFLSVKASHVLKGFLNKDPKERLGCRPQTGFSDIKSHAFFRSIDWDLLEKKQALPPFQPQITDDYGLDNFDTQFTSEPVQLTPDDEDAIKRIDQSEFEGFEYINPLLLSTEESV
B4: PKCζ in THP1 cell lysates (protein)
chain: B3 chain

Tests used:
[1] = molecular target: Mal (MyD88 adaptor-like), P58753
Mal (MyD88 adaptor-like), P58753, sequence (P58753 whole entry, the tested form may be a part): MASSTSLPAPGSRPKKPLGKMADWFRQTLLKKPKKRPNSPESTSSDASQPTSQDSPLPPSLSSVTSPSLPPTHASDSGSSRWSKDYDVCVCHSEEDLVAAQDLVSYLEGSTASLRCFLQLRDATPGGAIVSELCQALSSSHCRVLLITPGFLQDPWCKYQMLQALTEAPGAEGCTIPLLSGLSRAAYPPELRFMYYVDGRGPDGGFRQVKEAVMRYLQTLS

[2] = molecular target: GST-TRAM fusion protein (wild type), Q86XR7
GST-TRAM fusion protein (wild type), Q86XR7, sequence (Q86XR7 whole entry, the tested form may be a part): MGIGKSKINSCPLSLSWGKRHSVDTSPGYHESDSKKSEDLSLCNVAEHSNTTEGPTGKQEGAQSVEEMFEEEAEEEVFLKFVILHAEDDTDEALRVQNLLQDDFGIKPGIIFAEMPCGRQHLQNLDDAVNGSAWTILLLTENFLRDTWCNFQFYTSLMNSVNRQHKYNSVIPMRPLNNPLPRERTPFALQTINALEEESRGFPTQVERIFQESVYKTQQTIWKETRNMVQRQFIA

[3] = molecular target: GST-TRAM Ser16 mutant (serine 16 mutated to alanine), Q86XR7
GST-TRAM Ser16 mutant (serine 16 mutated to alanine), Q86XR7, sequence (Q86XR7 whole entry, looked up, change not shown): as the sequence (Q86XR7 whole entry, the tested form may be a part) above

Protein | phosphorylation in an in-vitro kinase assay ([γ32P] ATP, autoradiography) [1] | phosphorylation in an in-vitro kinase assay ([γ32P] ATP, autoradiography) [2] | phosphorylation of GST-TRAM after pulldown from THP1 lysates (kinase assay) [3] | phosphorylation of GST-TRAM after pulldown from immunodepleted THP1 lysates (kinase assay) [2]
B1 | rePKCε phosphorylated WT-TRAM but not Mal | recombinant PKCε (rePKCε) (Calbiochem) phosphorylated GST-TRAM | – | –
B2 | – | – | we mutated serine 16 to an alanine and found that the LPS dependent phosphorylation of TRAM was severally impaired | the removal of PKCε from the lysates abolishes the phosphorylation of TRAM
B3 | – | Recombinant PKCζ did not phosphorylate TRAM again suggesting specificity | – | –
B4 | – | – | – | The removal of PKCζ had no effect on the phosphorylation of TRAM
